Measured values published in patent US20100022006, “GAMMA SATELLITE INSULATOR SEQUENCES AND THEIR USE IN PREVENTING GENE SILENCING” (THE GOVT. OF THE USA AS REPRESENTED BY THE SECRETA, published 2010).

Experiments:
[1] = target: T1, CTCF 11 ZF DNA binding domain (UniProt P49711 P49711:266-577); test: EMSA; among strongest binding; PBS, Mg, Zn, poly(dI-dC), room temperature; ~250 bp probe containing the monomer; details: tags: pET16b-11ZF construct, TnT reticulocyte lysate (Promega); label: 32P
T1 sequence: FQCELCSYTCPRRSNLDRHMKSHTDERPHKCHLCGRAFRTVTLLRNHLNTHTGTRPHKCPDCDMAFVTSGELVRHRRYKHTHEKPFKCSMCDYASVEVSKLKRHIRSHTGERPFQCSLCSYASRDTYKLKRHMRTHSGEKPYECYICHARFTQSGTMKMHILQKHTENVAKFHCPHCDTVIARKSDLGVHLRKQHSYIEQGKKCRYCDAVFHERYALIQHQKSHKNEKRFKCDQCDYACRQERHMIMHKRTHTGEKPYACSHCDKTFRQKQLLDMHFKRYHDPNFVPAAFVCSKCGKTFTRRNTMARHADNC
Experimental: (§1) Gamma-satellite monomers from human chromosome X and Y were PCR amplified from genomic DNA, cloned into TA vector and sequenced before their analysis by electrophoretic mobility gel-shift assay (EMSA). Binding reactions were carried out in buffer containing standard PBS with 5 μM MgCl₂, 0.1 μM ZnSO4, 1 μM DTT, 0.1% NP40, and 10% glycerol in the presence of poly(deoxyinosinic-deoxy-CMP) and salmon sperm DNA. Reaction mixtures of 20 μL final volume were incubated for 30 minutes at room temperature and then analyzed on 5% nondenaturing gel using polyacrylamide gel electrophoresis (PAGE) in 0.5×TBE buffer. For EMSA with in vitro methylated DNA probes, treatment with the SssI-methylase was done as previously described for CTCF-binding fragments DMD4 and DMD7 of the H19 ICR (Kanduri et al., Curr. Biol., 10:853-856, 2000). The extent of methylation was verified by digestion overnight with Sau96I restriction endonuclease. Methylation interference analysis was carried out as described previously (Filippova et al., 1996; ibid).
(§2) Electrophoretic mobility shift assays (EMSA) were performed. A set of overlapping fragments corresponding to an 1′-mer of the human gamma 8, were radiolabeled and incubated with the in vitro translated 11 ZF DNA binding domain of the CTCF protein. […] None of 11 alpha-satellite monomers analyzed bound the CTCF protein in vitro.

[2] = target: Luciferase (in vitro translated control) (UniProt P08659 P08659:1-550); test: EMSA; negative control lysate; details: tags: Luciferase T7 control DNA (Promega); label: 32P
Experimental: as §1, §2

[3] = target: T1, CTCF 11 ZF DNA binding domain; test: footprint; methylation interference on fragment 11: seven contact guanines (3 sense, 4 antisense); 55 bp core of 100 bp fragment printed; details: tags: pET16b-11ZF construct, TnT reticulocyte lysate (Promega)
Experimental: as §1, with “Binding” for “Gamma-satellite monomers from human chromosome X and Y were PCR amplified from genomic DNA, cloned into TA vector and sequenced before their analysis by electrophoretic mobility gel-shift assay (EMSA). Binding”
To determine the contact guanine residues recognized by CTCF in gamma-satellite DNA, methylation interference assays (a method that identifies guanine residues in the CTCF binding site that make contact with CTCF zinc fingers) were conducted using a ³²P-labeled fragment of the gamma-satellite monomer (fragment #11). A strong interference of guanine methylation with CTCF-DNA binding was found in three and four guanine residues on sense and anti-sense strands, respectively (FIG. 5B). […]

[4] = target: T1, CTCF 11 ZF DNA binding domain; test: EMSA; CpG methylation does not affect binding; details: tags: pET16b-11ZF construct, TnT reticulocyte lysate (Promega); label: 32P
Experimental: as §1
To confirm in vitro mapping results, four guanine residues within the predicted core sequence were selectively mutated, as indicated in FIG. 12. […] To determine if CTCF binding is methylation-dependent, gamma-satellite 8 PCR fragments were methylated with a SssI methyltransferase. […]

[5] = target: T1, CTCF 11 ZF DNA binding domain; test: EMSA; among strongest binding; details: tags: pET16b-11ZF construct, TnT reticulocyte lysate (Promega); label: 32P
Experimental: as §1
Electrophoretic mobility shift assays (EMSA) were performed. A set of overlapping fragments corresponding to an 1′-mer of the human gamma 8, were radiolabeled and incubated with the in vitro translated 11 ZF DNA binding domain of the CTCF protein. Recombinant luciferase protein prepared by the same in vitro translation reaction was used as a negative control. […] The presence of CTCF-binding sites was also checked in the human alpha-satellite DNA array lacking anti-silencing (insulating) activity. None of 11 alpha-satellite monomers analyzed bound the CTCF protein in vitro.

[6] = target: T1, CTCF 11 ZF DNA binding domain; test: EMSA; mutation knocked down binding; details: tags: pET16b-11ZF construct, TnT reticulocyte lysate (Promega)
Experimental: as §1
To confirm in vitro mapping results, four guanine residues within the predicted core sequence were selectively mutated, as indicated in FIG. 12. […] To determine if CTCF binding is methylation-dependent, gamma-satellite 8 PCR fragments were methylated with a SssI methyltransferase. […] It is worth noting that in most previously reported cases, methylation prevents CTCF binding (Ohlsson et al., Trends Genet., 17:520-527, 2001).

Chain of Luciferase (in vitro translated control) (P08659 whole entry, one chain of several): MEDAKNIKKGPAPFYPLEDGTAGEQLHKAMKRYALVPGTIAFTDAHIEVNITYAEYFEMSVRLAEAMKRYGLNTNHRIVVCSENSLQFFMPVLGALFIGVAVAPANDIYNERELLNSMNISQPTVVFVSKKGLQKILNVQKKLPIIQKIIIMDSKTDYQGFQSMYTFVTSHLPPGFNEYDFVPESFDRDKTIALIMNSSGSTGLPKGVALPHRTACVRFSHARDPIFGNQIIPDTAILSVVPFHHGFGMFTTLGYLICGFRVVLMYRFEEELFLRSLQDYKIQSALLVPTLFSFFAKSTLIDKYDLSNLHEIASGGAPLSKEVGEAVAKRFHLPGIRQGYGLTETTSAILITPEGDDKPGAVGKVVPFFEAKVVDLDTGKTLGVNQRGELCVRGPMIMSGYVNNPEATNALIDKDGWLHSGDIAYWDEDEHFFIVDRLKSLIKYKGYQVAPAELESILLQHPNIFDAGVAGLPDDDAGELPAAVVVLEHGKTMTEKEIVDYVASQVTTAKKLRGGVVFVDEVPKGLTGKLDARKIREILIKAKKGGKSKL

Binder	binding result [5]	binding result [6]	further results
gamma-satellite 8 fragment 11 (monomer 8) (dsDNA) DNA 1: CGAAAATGGGGCCACTGGGTGGCCTGAACGAGCCAAAGGGACTCAGGGTGACACTGAGG DNA 2: CCTCAGTGTCACCCTGAGTCCCTTTGGCTCGTTCAGGCCACCCAGTGGCCCCATTTTCG			binding result [1]: binds; binding result [2]: no binding
gamma-satellite 8 monomer 8 WT-8 core (dsDNA) DNA 1: CGAAAATGGGGCCACTGGGTGGCCTGAACGAGCCAAAGGGACTCAGGGTGACACT DNA 2: AGTGTCACCCTGAGTCCCTTTGGCTCGTTCAGGCCACCCAGTGGCCCCATTTTCG			binding result [3]: binds
SssI-methylated gamma-satellite 8 fragment (dsDNA, 5mC at CpG (SssI)) DNA 1: CGAAAATGGGGCCACTGGGTGGCCTGAACGAGCCAAAGGGACTCAGGGTGACACTGAGG DNA 2: CCTCAGTGTCACCCTGAGTCCCTTTGGCTCGTTCAGGCCACCCAGTGGCCCCATTTTCG			binding result [4]: binds
gamma-satellite 8 fragment 5 (monomer 4) (dsDNA) DNA 1: CAAAAACAAGGCCGCAGGGTGGCGTGGGCGGGCCGCAGGGACTCAGGTGGAAATTGTGG DNA 2: CCACAATTTCCACCTGAGTCCCTGCGGCCCGCCCACGCCACCCTGCGGCCTTGTTTTTG	binds		
gamma-satellite 8 fragment 6 (monomer 5) (dsDNA) DNA 1: CAAAAACAGTGCCGCAGTGTGGCCTGGGCGGGCCACAGGGACTCAGGGAGACGTTGAGG DNA 2: CCTCAACGTCTCCCTGAGTCCCTGTGGCCCGCCCAGGCCACACTGCGGCACTGTTTTTG	binds		
gamma-satellite 8 fragment 8 (monomer 6) (dsDNA) DNA 1: AGACAACAGGGCGGCTGGATGGCATGGGCCGATCGTAGGAACCCAGGGAGACATTGAGG DNA 2: CCTCAATGTCTCCCTGGGTTCCTACGATCGGCCCATGCCATCCAGCCGCCCTGTTGTCT	binds		
gamma-satellite 8 fragment 10 (monomer 7) (dsDNA) DNA 1: TGAAAACAGGGAGGCAGGGTGGCATGGCCAGGCCGCAGGGACTATGGTGGACATTGTGG DNA 2: CCACAATGTCCACCATAGTCCCTGCGGCCTGGCCATGCCACCCTGCCTCCCTGTTTTCA	binds		
gamma-satellite 8 monomer 8 Mu1 (dsDNA) DNA 1: CGAAAATGGGGCCACTAAATGGTCTGAACGAGCCAAAGGGACTCAGGGTGACACT DNA 2: AGTGTCACCCTGAGTCCCTTTGGCTCGTTCAGACCATTTAGTGGCCCCATTTTCG		no binding	
gamma-satellite 8 monomer 8 Mu2 (dsDNA) DNA 1: CGAAAATGGGGCCACTGAGTGGTTTGAATGAGCCAAAGGGACTCAGGGTGACACT DNA 2: AGTGTCACCCTGAGTCCCTTTGGCTCATTCAAACCACTCAGTGGCCCCATTTTCG		no binding	
gamma-satellite 8 monomer 8 Mu3 (dsDNA) DNA 1: CGAAAATGGGGTCATTAGGTGGTCTGAATGAGCCAAAGGGACTCAGGGTGACACT DNA 2: AGTGTCACCCTGAGTCCCTTTGGCTCATTCAGACCACCTAATGACCCCATTTTCG		no binding	
